Results published in the Immune Epitope Database (IEDB).

Key:
HLA-A*01:01 = test: IEDB peptide-MHC binding, purified MHC/competitive/radioactivity; filed as Kd, often an IC50 or EC50 that approximates it; ≥ and ≤ were set here for values at or beyond the usual limits of such assays
HLA-A*26:01 = test: as above
HLA-A*29:02 = test: as above
HLA-A*30:01 = test: as above
HLA-A*30:02 = test: as above
HLA-A*32:01 = test: as above
HLA-B*44:02 = test: as above
HLA-B*44:03 = test: as above
HLA-A*23:01 = test: as above
HLA-A*24:02 = test: as above
HLA-B*07:02 = test: as above
HLA-B*15:01 = test: IEDB peptide-MHC binding, purified MHC/competitive/fluorescence; filed as Kd, often an IC50 or EC50 that approximates it; ≥ and ≤ were set here for values at or beyond the usual limits of such assays
HLA-B*46:01 = test: IEDB peptide-MHC binding, purified MHC/direct/fluorescence; filed as Kd, often an IC50 or EC50 that approximates it; ≥ and ≤ were set here for values at or beyond the usual limits of such assays; settings: source organism: West Nile virus
HLA-A*02:01 = test: IEDB peptide-MHC binding, purified MHC/competitive/fluorescence; filed as Kd, often an IC50 or EC50 that approximates it; ≥ and ≤ were set here for values at or beyond the usual limits of such assays; settings: source organism: Escherichia coli 536
HLA-B*51:01 = test: as above; settings: source organism: Escherichia coli 536
[1] = source organism: Mammarenavirus brazilense
[2] = source organism: Dengue virus 4 Philippines/H241/1956
[3] = source organism: Dengue virus 1 Brazil/97-11/1997
[4] = source organism: Mammarenavirus whitewaterense
[5] = source organism: Dengue virus 2 Jamaica/1409/1983
[6] = source organism: Lymphocytic choriomeningitis virus (strain Armstrong)
[7] = source organism: SARS coronavirus Tor2
[8] = source organism: Lassa virus GA391

Question: How did the Kd (HLA-A*01:01; [1]) turn out when LLSEMLNKEY was run?
Answer: 446 nM

Question: What about the Kd (HLA-A*26:01; [1]) of the same sequence?
Answer: 15800 nM

Question: What about the Kd (HLA-A*29:02; [1]) of the same sequence?
Answer: 511 nM

Question: What about the Kd (HLA-A*30:01; [1]) of the same sequence?
Answer: 10900 nM

Question: What about the Kd (HLA-A*30:02; [1]) of the same sequence?
Answer: 701 nM

Question: What about the Kd (HLA-A*32:01; [1]) of the same sequence?
Answer: ≥ 38600 nM

Question: For AIAVASGLLW, which Kd (HLA-B*44:02; [2]) is on record?
Answer: 8800 nM

Question: And the Kd (HLA-B*44:03; [2])?
Answer: 908 nM

Question: How did the Kd (HLA-B*44:02; [3]) turn out when RELKCGSGIF was run?
Answer: 54.8 nM

Question: What about the Kd (HLA-B*44:03; [3]) of the same sequence?
Answer: 151 nM

Question: PNERRAWNFL was tested. Which Kd (HLA-A*32:01; [2]) did it give?
Answer: ≥ 25300 nM

Question: With ATTNAHCALL as the sequence, how does the Kd (HLA-A*01:01; [4]) read?
Answer: 7670 nM

Question: And the Kd (HLA-A*26:01; [4])?
Answer: ≥ 69700 nM

Question: What about the Kd (HLA-A*29:02; [4]) of the same sequence?
Answer: ≥ 71400 nM

Question: What about the Kd (HLA-A*30:01; [4]) of the same sequence?
Answer: 2350 nM

Question: And the Kd (HLA-A*30:02; [4])?
Answer: 6040 nM

Question: And the Kd (HLA-A*32:01; [4])?
Answer: ≥ 69900 nM

Question: With ATIWRSLSI as the sequence, how does the Kd (HLA-A*32:01; source organism: Vaccinia virus Copenhagen) read?
Answer: 1.89 nM

Question: How did the Kd (HLA-B*44:02; [5]) turn out when NEPEDIDCW was run?
Answer: 1080 nM

Question: And the Kd (HLA-B*44:03; [5])?
Answer: 870 nM

Question: With ITYPKALVF as the sequence, how does the Kd (HLA-A*32:01; source organism: Vaccinia virus WR) read?
Answer: 3.02 nM

Question: How did the Kd (HLA-A*23:01; [6]) turn out when VCLSGEGWPY was run?
Answer: ≥ 70000 nM

Question: And the Kd (HLA-A*24:02; [6])?
Answer: ≥ 70300 nM

Question: And the Kd (HLA-A*26:01; [6])?
Answer: ≥ 69700 nM

Question: And the Kd (HLA-A*30:01; [6])?
Answer: ≥ 33200 nM

Question: And the Kd (HLA-A*32:01; [6])?
Answer: ≥ 26100 nM

Question: How did the Kd (HLA-A*01:01; [7]) turn out when DTSNPKTPKY was run?
Answer: 194 nM

Question: What about the Kd (HLA-A*23:01; [7]) of the same sequence?
Answer: ≥ 70000 nM

Question: And the Kd (HLA-A*24:02; [7])?
Answer: ≥ 70300 nM

Question: And the Kd (HLA-A*26:01; [7])?
Answer: 1260 nM

Question: And the Kd (HLA-A*29:02; [7])?
Answer: 367 nM

Question: What about the Kd (HLA-A*30:02; [7]) of the same sequence?
Answer: 48.9 nM

Question: With TPMLRHSIEN as the sequence, how does the Kd (HLA-B*07:02; [5]) read?
Answer: 507 nM

Question: For LAAVSVSPL, which Kd (HLA-B*07:02; [5]) is on record?
Answer: 125 nM

Question: LPVCAPSSA was tested. Which Kd (HLA-B*07:02; source organism: Hepatitis B virus) did it give?
Answer: 115 nM

Question: How did the Kd (HLA-B*15:01; source organism: Yersinia pestis Antiqua) turn out when FSQEEAKLF was run?
Answer: 2480 nM

Question: Which Kd (HLA-B*46:01) does the source give for GVIMPNGSY here?
Answer: 1990 nM

Question: Which results are given for ICISLSNSF?
Answer: Kd (HLA-A*01:01; [6]): ≥ 21400 nM; Kd (HLA-A*23:01; [6]): ≥ 77700 nM; Kd (HLA-A*24:02; [6]): ≥ 77500 nM; Kd (HLA-A*26:01; [6]): ≥ 77900 nM; Kd (HLA-A*29:02; [6]): ≥ 78900 nM; Kd (HLA-A*30:02; [6]): ≥ 76900 nM

Question: How did the Kd (HLA-A*01:01; [7]) turn out when AMQKESDDY was run?
Answer: 2740 nM

Question: And the Kd (HLA-A*23:01; [7])?
Answer: ≥ 77800 nM

Question: What about the Kd (HLA-A*24:02; [7]) of the same sequence?
Answer: ≥ 77600 nM

Question: What about the Kd (HLA-A*26:01; [7]) of the same sequence?
Answer: ≥ 65300 nM

Question: What about the Kd (HLA-A*29:02; [7]) of the same sequence?
Answer: 15500 nM

Question: And the Kd (HLA-A*30:02; [7])?
Answer: 126 nM

Question: Which results are given for NEMGLLETTK?
Answer: Kd (HLA-B*44:02; [3]): 1690 nM; Kd (HLA-B*44:03; [3]): ≥ 20700 nM

Question: YTTTIKPVSY was tested. Which Kd (HLA-A*01:01; [7]) did it give?
Answer: 41.6 nM

Question: And the Kd (HLA-A*23:01; [7])?
Answer: ≥ 70000 nM

Question: And the Kd (HLA-A*24:02; [7])?
Answer: ≥ 70300 nM

Question: And the Kd (HLA-A*26:01; [7])?
Answer: 878 nM

Question: And the Kd (HLA-A*29:02; [7])?
Answer: 31.6 nM

Question: What about the Kd (HLA-A*30:02; [7]) of the same sequence?
Answer: 1020 nM

Question: Which results are given for QEEHKETWHY?
Answer: Kd (HLA-B*44:02; [2]): 685 nM; Kd (HLA-B*44:03; [2]): 422 nM

Question: With SAVPVDWVPT as the sequence, how does the Kd (HLA-A*32:01; [3]) read?
Answer: 18600 nM

Question: For EGNETPGGY, which Kd (HLA-A*01:01; [8]) is on record?
Answer: ≥ 20900 nM

Question: And the Kd (HLA-A*23:01; [8])?
Answer: 174 nM

Question: What about the Kd (HLA-A*24:02; [8]) of the same sequence?
Answer: 1210 nM

Question: What about the Kd (HLA-A*26:01; [8]) of the same sequence?
Answer: ≥ 77900 nM

Question: What about the Kd (HLA-A*29:02; [8]) of the same sequence?
Answer: 18600 nM

Question: And the Kd (HLA-A*30:02; [8])?
Answer: ≥ 76900 nM

Question: Which Kd (HLA-A*32:01; [3]) does the source give for EVKTCIWPKS here?
Answer: ≥ 49500 nM

Question: With FSSQALVLI as the sequence, how does the Kd (HLA-A*02:01) read?
Answer: 692 nM

Question: And the Kd (HLA-B*15:01; source organism: Escherichia coli 536)?
Answer: ≥ 20000 nM

Question: What about the Kd (HLA-B*51:01) of the same sequence?
Answer: ≥ 20000 nM

Question: NPTTLTASL was tested. Which Kd (HLA-B*07:02; source organism: Dengue virus 4 Dominica/814669/1981) did it give?
Answer: 57.3 nM
